T1: IscR-C92A/C98A/C104A (clusterless) (Escherichia coli, UniProt P0AGK8 1-162, C92A;C98A;C104A)
T1 sequence: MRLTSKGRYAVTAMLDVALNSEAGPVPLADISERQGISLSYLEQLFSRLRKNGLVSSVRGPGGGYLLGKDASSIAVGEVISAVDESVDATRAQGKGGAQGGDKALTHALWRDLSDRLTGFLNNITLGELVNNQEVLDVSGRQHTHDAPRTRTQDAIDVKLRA

T2: IscR wild-type (as purified, about 60% [2Fe-2S] occupied) (Escherichia coli, UniProt P0AGK8 1-162)
T2 sequence: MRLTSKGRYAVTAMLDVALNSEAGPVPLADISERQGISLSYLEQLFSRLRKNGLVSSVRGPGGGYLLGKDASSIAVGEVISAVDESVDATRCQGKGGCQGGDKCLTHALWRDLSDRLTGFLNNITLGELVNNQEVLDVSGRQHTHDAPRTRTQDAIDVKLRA


The binders below were run against T1, IscR-C92A/C98A/C104A (clusterless) (assay: competition).

Row | Binder | IC50 [nM]
1 | hya -50(C to A) (dsDNA) DNA 1: ATAAATCAACACAGTTTGTATTGTTTTGTG DNA 2: CACAAAACAATACAAACTGTGTTGATTTAT | 268
2 | hya -44,-42,-41,-40 (dsDNA) DNA 1: ATAAATCCACACATTGGTTATTGTTTTGTG DNA 2: CACAAAACAATAACCAATGTGTGGATTTAT | 785
3 | hyaA competitor (dsDNA) DNA 1: ATAAATCCACACAGTTTGTATTGTTTTGTG DNA 2: CACAAAACAATACAAACTGTGTGGATTTAT | 29
4 | hya -48(C to T) (dsDNA) DNA 1: ATAAATCCATACAGTTTGTATTGTTTTGTG DNA 2: CACAAAACAATACAAACTGTATGGATTTAT | 48
5 | Palindrome1 (dsDNA) DNA 1: ATAAATACATACAGTTTGTATGTATTTGTG DNA 2: CACAAATACATACAAACTGTATGTATTTAT | 202
6 | hya -47 (dsDNA) DNA 1: ATAAATCCACTCAGTTTGTATTGTTTTGTG DNA 2: CACAAAACAATACAAACTGAGTGGATTTAT | 190
7 | hya -53,-52 (dsDNA) DNA 1: ATAATCCCACACAGTTTGTATTGTTTTGTG DNA 2: CACAAAACAATACAAACTGTGTGGGATTAT | 33
8 | hya -36(T to A) (dsDNA) DNA 1: ATAAATCCACACAGTTTGTATAGTTTTGTG DNA 2: CACAAAACTATACAAACTGTGTGGATTTAT | 52
9 | hya -54,-48,-45,-37 (dsDNA) DNA 1: ATATATCCAGACTGTTTGTAATGTTTTGTG DNA 2: CACAAAACATTACAAACAGTCTGGATATAT | 80
10 | hya -42 (dsDNA) DNA 1: ATAAATCCACACAGTATGTATTGTTTTGTG DNA 2: CACAAAACAATACATACTGTGTGGATTTAT | 73
11 | hya -34/33 (dsDNA) DNA 1: ATAAATCCACACAGTTTGTATTGAATTGTG DNA 2: CACAATTCAATACAAACTGTGTGGATTTAT | 39
12 | hya -32,-30 (dsDNA) DNA 1: ATAAATCCACACAGTTTGTATTGTTATCTG DNA 2: CAGATAACAATACAAACTGTGTGGATTTAT | 18
13 | hya -36(T to G) (dsDNA) DNA 1: ATAAATCCACACAGTTTGTATGGTTTTGTG DNA 2: CACAAAACCATACAAACTGTGTGGATTTAT | 16
14 | hya -49 (dsDNA) DNA 1: ATAAATCCTCACAGTTTGTATTGTTTTGTG DNA 2: CACAAAACAATACAAACTGTGAGGATTTAT | 44
15 | hya -40 (dsDNA) DNA 1: ATAAATCCACACAGTTTCTATTGTTTTGTG DNA 2: CACAAAACAATAGAAACTGTGTGGATTTAT | 39
16 | hya -41 (dsDNA) DNA 1: ATAAATCCACACAGTTAGTATTGTTTTGTG DNA 2: CACAAAACAATACTAACTGTGTGGATTTAT | 34
17 | hya -51 (dsDNA) DNA 1: ATAAATGCACACAGTTTGTATTGTTTTGTG DNA 2: CACAAAACAATACAAACTGTGTGCATTTAT | 400
18 | Palindrome1-2 (dsDNA) DNA 1: ATAAATCCATACAGTTTGTATGGATTTGTG DNA 2: CACAAATCCATACAAACTGTATGGATTTAT | ~10
19 | hya -46 (dsDNA) DNA 1: ATAAATCCACATAGTTTGTATTGTTTTGTG DNA 2: CACAAAACAATACAAACTATGTGGATTTAT | 37
20 | hya -35 (dsDNA) DNA 1: ATAAATCCACACAGTTTGTATTTTTTTGTG DNA 2: CACAAAAAAATACAAACTGTGTGGATTTAT | 505
21 | hya -36(T to C) (dsDNA) DNA 1: ATAAATCCACACAGTTTGTATCGTTTTGTG DNA 2: CACAAAACGATACAAACTGTGTGGATTTAT | 134
22 | hya -31 (dsDNA) DNA 1: ATAAATCCACACAGTTTGTATTGTTTGGTG DNA 2: CACCAAACAATACAAACTGTGTGGATTTAT | 263
23 | hya -42,-41 (dsDNA) DNA 1: ATAAATCCACACAGTGGGTATTGTTTTGTG DNA 2: CACAAAACAATACCCACTGTGTGGATTTAT | 300
24 | hya -55 (A to C) (dsDNA) DNA 1: ATCAATCCACACAGTTTGTATTGTTTTGTG DNA 2: CACAAAACAATACAAACTGTGTGGATTGAT | 394
25 | hya -39 (dsDNA) DNA 1: ATAAATCCACACAGTTTGAATTGTTTTGTG DNA 2: CACAAAACAATTCAAACTGTGTGGATTTAT | 199
26 | hya -44,-43 (dsDNA) DNA 1: ATAAATCCACACATGTTGTATTGTTTTGTG DNA 2: CACAAAACAATACAACATGTGTGGATTTAT | 89

Each binder was assayed against T1, IscR-C92A/C98A/C104A (clusterless) (assay: fluorescence anisotropy).

Row | Binder | binding result
27 | randomized hya site, labeled 30-mer (dsDNA) DNA 1: ATCATCCGTCTTATGTTAATTATAATGGTG DNA 2: CACCATTATAATTAACATAAGACGGATGAT | no binding

Target: the molecule itself
Test: AUC

Row | Binder | stoichiometry N
28 | IscR-C92A/C98A/C104A (natural protein, Escherichia coli, UniProt P0AGK8 1-162, looked up) MRLTSKGRYAVTAMLDVALNSEAGPVPLADISERQGISLSYLEQLFSRLRKNGLVSSVRGPGGGYLLGKDASSIAVGEVISAVDESVDATRAQGKGGAQGGDKALTHALWRDLSDRLTGFLNNITLGELVNNQEVLDVSGRQHTHDAPRTRTQDAIDVKLRA | 2

The binders below were run against T2, IscR wild-type (as purified, about 60% …) (assay: fluorescence anisotropy).

Row | Binder | Kd [nM]
29 | hyaA site, labeled 30-mer (dsDNA) DNA 1: ATAAATCCACACAGTTTGTATTGTTTTGTG DNA 2: CACAAAACAATACAAACTGTGTGGATTTAT | 34 ± 2

Target: the molecule itself
Test: SEC

Row | Binder | stoichiometry N
30 | wild-type IscR (as purified, 35% occupied with [2Fe-2S] cluster) (natural protein, Escherichia coli, UniProt P0AGK8 1-162, looked up) MRLTSKGRYAVTAMLDVALNSEAGPVPLADISERQGISLSYLEQLFSRLRKNGLVSSVRGPGGGYLLGKDASSIAVGEVISAVDESVDATRCQGKGGCQGGDKCLTHALWRDLSDRLTGFLNNITLGELVNNQEVLDVSGRQHTHDAPRTRTQDAIDVKLRA | 2
31 | apo-IscR (generated from wild-type IscR by treatment with 2,2'-dipyridyl) (natural protein, Escherichia coli, UniProt P0AGK8 1-162, looked up) MRLTSKGRYAVTAMLDVALNSEAGPVPLADISERQGISLSYLEQLFSRLRKNGLVSSVRGPGGGYLLGKDASSIAVGEVISAVDESVDATRCQGKGGCQGGDKCLTHALWRDLSDRLTGFLNNITLGELVNNQEVLDVSGRQHTHDAPRTRTQDAIDVKLRA | 2

Target: T1, IscR-C92A/C98A/C104A (clusterless)
Test: fluorescence anisotropy
Remark: another data set of the same source

Row | Binder | Kd [nM]
32 | hyaA site, labeled 30-mer (dsDNA) DNA 1: ATAAATCCACACAGTTTGTATTGTTTTGTG DNA 2: CACAAAACAATACAAACTGTGTGGATTTAT | 44 ± 3

Target: T2, IscR wild-type (as purified, about 60% …)
Test: fluorescence anisotropy
Remark: another data set of the same source

Row | Binder | binding result
33 | randomized hya site, labeled 30-mer (dsDNA) DNA 1: ATCATCCGTCTTATGTTAATTATAATGGTG DNA 2: CACCATTATAATTAACATAAGACGGATGAT | no binding
